Test results: PMC6092330

Biological target: acid-purified histones (human (endogenous in TE-7))

- CCL2 secretion by HMC-1 mast cells (42-cytokine multiplex array), fold change against untreated, 23.4 nM recombinant WT IL-33 without and with 6.7 µg/mL acid-purified histones: 822 fold
B1: recombinant GST-tagged full-length IL-33 (H00090865-P01, Abnova) (natural protein)
chain: MKPKMKYSTNKISTAKWKNTASKALCFKLGKSQQKAKEVCPMYFMKLRSGLMIKKEACYFRRETTKRPSLKTGRKHKRHLVLAACQQQSTVECFAFGISGVQKYTRALHDSSITGISPITEYLASLSTYNDQSITFALEDESYEIYVEDLKKDEKKDKVLLSYYESQHPSNESGDGVDGKMLMVTLSPTKDFWLHANNKEHSVELHKCEKPLPDQAFFVLHNMHSNCVSFECKTDPGVFIGVKDNHLALIKVDSSENLCTENILFKLSET
